The source of these data is patent US20110076262A1 (Genentech, published 2011).

In test [1] the target is T1, Human FGF19 (human, UniProt O95750 25-216).
T1 construct: Recombinant soluble protein; also called huFGF19; Fibroblast growth factor 19
As to the kind of experiment: solid phase receptor binding assay: antibody blocks FGF19 binding to plate-captured FGFR4-Fc. As to the method: (§1) Maxisorb 96 well plates were coated overnight at 4° C. with 50 μl of 2 μg/ml anti-human immunoglobulin Fcγ fragment specific (Jackson Immunoresearch) and used to capture 1 μg/ml FGFR-Fc chimeric proteins (R & D Systems). The non-specific binding sites were saturated with PBS/3% BSA for 1 hour and FGF19 (0.25 μg/ml) was incubated for 2 h in PBS/0.3% BSA in the presence of oligosaccharides (0.5 μg/ml; Neoparin Inc.) and the indicated anti-FGF19 antibody (0-10 μg/ml). FGF19 binding was detected using a biotinylated FGF19 specific polyclonal antibody (0.5 μg/ml; BAF969; R & D Systems) followed by streptavidin-HRP and TMB colorimetric substrate.
(§2) Humanized anti-FGF19 antibody 1A6.v1 was characterized as follows: [0531] (1) In an assay to test ability of 1A6.v1 to block binding of FGF19 to its receptor, FGFR4, 1A6.v1 was able to block FGF19 binding to its receptor at least as well as one comparator antibody—namely a chimeric antibody (which comprised the variable regions from the murine parent 1A6 antibody (variable domains depicted in FIG. 8) fused to a human Fc region). […] [0532] (2) 1A6.v1 was also tested for cross-species binding among human and primate (Cynomolgus macaque monkey). […] [0533] (3) 1A6.v1 was tested for in vitro efficacy using a colon tumor cell line (HCT116 cells). […] [0534] […]

For test [2], the target named is T1, Human FGF19. The test is described as follows: SPR (BIAcore 2000), IgG on chip, soluble human FGF19.
The target in test [3] is T1, Human FGF19. Described as above. This is another data set of the same source.
A further test concerns the target T2, Cynomolgus FGF19 (cynomolgus monkey).
T2 construct: also called Cyno FGF19; cynoFGF19
As to the kind of experiment: SPR (BIAcore 2000), IgG on chip, soluble cynomolgus FGF19. A general note: In SPR one partner is held on a chip, and binding of the other changes the refractive index at the surface.

The target of test [4] is T1, Human FGF19. As to the kind of experiment: SPR (BIAcore 2000), IgG on chip, soluble human FGF19. This is another data set of the same source.
Test [5] deals with T1, Human FGF19. The test is described as follows: Solid phase receptor binding assay: FGFR4-Fc captured on an anti-human Fc plate, FGF19 (0.25 µg/ml) incubated with titrated anti-FGF19 antibody, bound FGF19 detected with biotinylated polyclonal anti-FGF19 / streptavidin-HRP (OD 450 nm); blocked ligand-receptor pair FGF19/FGFR4. Here is the method: as §1, §2
Test [6] deals with T1, Human FGF19. As to the kind of experiment: SPR (Biacore), 1A6-graft as IgG, soluble human FGF19; reference chimeric 1A6.

Like-named read-outs stand apart in the source and are kept apart here. Some results are limits rather than exact numbers.

T1 sequence (O95750 25-216 limits assumed): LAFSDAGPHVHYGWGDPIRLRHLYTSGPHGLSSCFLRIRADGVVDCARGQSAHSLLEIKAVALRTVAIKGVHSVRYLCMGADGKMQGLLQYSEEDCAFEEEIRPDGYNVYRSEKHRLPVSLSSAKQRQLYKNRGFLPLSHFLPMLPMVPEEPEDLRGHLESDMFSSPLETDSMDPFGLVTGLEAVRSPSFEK

B1: chimeric anti-FGF19 antibody 1A6 (antibody, V domains shown)
VH: QVQLKQSGPGLVQPSQSLSITCTVSGFSLTTYGVHWVRQSPGKGLEWLGVIWPGGGTDYNAAFISRLSITKDNSKSQVFFKMNSLLANDTAIYFCVRKEYANLYAMDYWGQGTLLTVSA
VL: DIKMTQSPSSMYASLGERVTIPCKASQDINSFLSWFQQKPGKSPKTLIYRANRLVDGVPSRFSGSGSGQDYSLTISSLEYEDMGIYYCLQYDEFPLTFGAGTKVEIKR
notes: also called chimeric 1A6; ch1A6
Usually IC50 stands for the concentration that gives 50% inhibition. The term Kd denotes a measure of binding affinity in units of concentration. For orientation: koff means a measure of how fast the partners let go of each other. The term kon denotes the second-order rate constant of association. High values mean fast association, low ones slow association. On to B1, for which the IC50 with Human FGF19 [1] came to 4.5 nM. Further, in the test with Human FGF19 [2], the dissociation constant (Kd) worked out at 0.032 nM, the koff amounted to 5.4e-05 s⁻¹ and the kon was 1.7e+06 M⁻¹ s⁻¹. In addition, in the test with Human FGF19 [3], the “KD (fold weaker), against chimeric 1A6” value worked out at 1 fold; the “Ka (fold slower), against chimeric 1A6” value was 1 fold; the “Kd (fold faster), against chimeric 1A6” value turned out to be 1 fold. In the test with Cynomolgus FGF19, this molecule had a dissociation constant Kd of 0.087 nM, a dissociation rate constant (koff) of 6.6e-05 s⁻¹ and a kon of 760000 M⁻¹ s⁻¹. In the test with Human FGF19 [4], this molecule came in with a Kd of 0.036 nM, an off-rate constant (koff) of 5.3e-05 s⁻¹ and a kon of 1.47e+06 M⁻¹ s⁻¹. This molecule registered a concentration for half-maximal inhibition (IC50) with Human FGF19 [5] of 0.675 µg/mL.

B2: 1A6-graft (direct HVR-graft of 1A6), expressed as IgG (antibody, V domains shown)
VH: EVQLVESGGGLVQPGGSLRLSCAASGFSLTTYGVHWVRQAPGKGLEWVGVIWPGGGTDYNAAFISRFTISRDNSKNTLYLQMNSLRAEDTAVYYCVRKEYANLYAMDYWGQGTLVTVSS
VL: DIQMTQSPSSLSASVGDRVTITCKASQDINSFLSWYQQKPGKAPKLLIYRANRLVDGVPSRFSGSGSGTDFTLTISSLQPEDFATYYCLQYDEFPLTFGQGTKVEIKR
notes: Tested as IgG produced in 293 cells; also called 1A6 grafted antibody; 1A6 HVR graft
On to B2, for which, in the test with Human FGF19 [6], the “fold reduction of binding affinity relative to chimeric 1A6” value is greater than 50 fold. In the test with Human FGF19 [3], the “KD (fold weaker), against chimeric 1A6” value came to 58.1 fold; the “Ka (fold slower), against chimeric 1A6” value was found to be 24.8 fold; the “Kd (fold faster), against chimeric 1A6” value was 2.3 fold. In the test with Human FGF19 [4], this molecule showed a dissociation constant Kd of 2.09 nM, a koff of 0.000124 s⁻¹ and a kon of 59300 M⁻¹ s⁻¹.

B3: hu1A6.S34A/D56S (HVR-L1/L2) (antibody, V domains shown)
VH: EVQLVESGGGLVQPGGSLRLSCAASGFSLTTYGVHWVRQAPGKGLEWVGVIWPGGGTDYNAAFISRFTISRDNSKNTLYLQMNSLRAEDTAVYYCVRKEYANLYAMDYWGQGTLVTVSS
VL: DIQMTQSPSSLSASVGDRVTITCKASQDINSFLAWYQQKPGKAPKLLIYRANRLVSGVPSRFSGSGSGTDFTLTISSLQPEDFATYYCLQYDEFPLTFGQGTKVEIKR
notes: Humanized 1A6 variant as IgG
In the test with Human FGF19 [2], B3 displayed a dissociation constant (Kd) of 0.118 nM, a koff of 4.6e-05 s⁻¹ and an association rate constant (kon) of 390000 M⁻¹ s⁻¹. In the test with Cynomolgus FGF19, this molecule showed a dissociation constant Kd of 0.481 nM, a koff of 7.7e-05 s⁻¹ and a kon of 160000 M⁻¹ s⁻¹.

B4: hu1A6.Q90S (HVR-L3) (antibody, V domains shown)
VH: EVQLVESGGGLVQPGGSLRLSCAASGFSLTTYGVHWVRQAPGKGLEWVGVIWPGGGTDYNAAFISRFTISRDNSKNTLYLQMNSLRAEDTAVYYCVRKEYANLYAMDYWGQGTLVTVSS
VL: DIQMTQSPSSLSASVGDRVTITCKASQDINSFLSWYQQKPGKAPKLLIYRANRLVDGVPSRFSGSGSGTDFTLTISSLQPEDFATYYCLSYDEFPLTFGQGTKVEIKR
For B4, in the test with Human FGF19 [3], the “KD (fold weaker), against chimeric 1A6” value came out at 16 fold; the “Ka (fold slower), against chimeric 1A6” value was 10.4 fold; the “Kd (fold faster), against chimeric 1A6” value was found to be 1.5 fold.

B5: hu1A6.S34A (HVR-L1) (antibody, V domains shown)
VH: EVQLVESGGGLVQPGGSLRLSCAASGFSLTTYGVHWVRQAPGKGLEWVGVIWPGGGTDYNAAFISRFTISRDNSKNTLYLQMNSLRAEDTAVYYCVRKEYANLYAMDYWGQGTLVTVSS
VL: DIQMTQSPSSLSASVGDRVTITCKASQDINSFLAWYQQKPGKAPKLLIYRANRLVDGVPSRFSGSGSGTDFTLTISSLQPEDFATYYCLQYDEFPLTFGQGTKVEIKR
Regarding B5, in the test with Human FGF19 [3], the “KD (fold weaker), against chimeric 1A6” value is 9.1 fold; the “Ka (fold slower), against chimeric 1A6” value was 7.7 fold; the “Kd (fold faster), against chimeric 1A6” value was 1.2 fold.

B6: hu1A6.A100bR (HVR-H3) (antibody, name in Kabat numbering, V domains shown)
VH: EVQLVESGGGLVQPGGSLRLSCAASGFSLTTYGVHWVRQAPGKGLEWVGVIWPGGGTDYNAAFISRFTISRDNSKNTLYLQMNSLRAEDTAVYYCVRKEYANLYRMDYWGQGTLVTVSS
VL: DIQMTQSPSSLSASVGDRVTITCKASQDINSFLSWYQQKPGKAPKLLIYRANRLVDGVPSRFSGSGSGTDFTLTISSLQPEDFATYYCLQYDEFPLTFGQGTKVEIKR
Turning to B6, in the test with Human FGF19 [3], the “KD (fold weaker), against chimeric 1A6” value was 2.3 fold; the “Ka (fold slower), against chimeric 1A6” value came to 2.6 fold; the “Kd (fold faster), against chimeric 1A6” value turned out to be 0.9 fold.

B7: hu1A6.S34G/D56S (HVR-L1/L2) (antibody, V domains shown)
VH: EVQLVESGGGLVQPGGSLRLSCAASGFSLTTYGVHWVRQAPGKGLEWVGVIWPGGGTDYNAAFISRFTISRDNSKNTLYLQMNSLRAEDTAVYYCVRKEYANLYAMDYWGQGTLVTVSS
VL: DIQMTQSPSSLSASVGDRVTITCKASQDINSFLGWYQQKPGKAPKLLIYRANRLVSGVPSRFSGSGSGTDFTLTISSLQPEDFATYYCLQYDEFPLTFGQGTKVEIKR
notes: Humanized 1A6 variant as IgG
In the case of B7, in the test with Human FGF19 [2], the affinity, expressed as Kd, was 0.114 nM; the dissociation rate constant (koff) amounted to 1.6e-05 s⁻¹; the kon came out at 140000 M⁻¹ s⁻¹. For the same molecule, in the test with Cynomolgus FGF19, the equilibrium dissociation constant (Kd) amounted to 0.906 nM, the koff turned out to be 4.8e-05 s⁻¹ and the association rate constant (kon) was 53000 M⁻¹ s⁻¹.

B8: hu1A6.V34A (HVR-H1) (antibody, name in Kabat numbering, V domains shown)
VH: EVQLVESGGGLVQPGGSLRLSCAASGFSLTTYGAHWVRQAPGKGLEWVGVIWPGGGTDYNAAFISRFTISRDNSKNTLYLQMNSLRAEDTAVYYCVRKEYANLYAMDYWGQGTLVTVSS
VL: DIQMTQSPSSLSASVGDRVTITCKASQDINSFLSWYQQKPGKAPKLLIYRANRLVDGVPSRFSGSGSGTDFTLTISSLQPEDFATYYCLQYDEFPLTFGQGTKVEIKR
Turning to B8, in the test with Human FGF19 [3], the “KD (fold weaker), against chimeric 1A6” value was determined as 10.5 fold; the “Ka (fold slower), against chimeric 1A6” value was found to be 12.5 fold; the “Kd (fold faster), against chimeric 1A6” value was 0.9 fold.

B9: hu1A6.V50L (HVR-H2) (antibody, name in Kabat numbering, V domains shown)
VH: EVQLVESGGGLVQPGGSLRLSCAASGFSLTTYGVHWVRQAPGKGLEWVGLIWPGGGTDYNAAFISRFTISRDNSKNTLYLQMNSLRAEDTAVYYCVRKEYANLYAMDYWGQGTLVTVSS
VL: DIQMTQSPSSLSASVGDRVTITCKASQDINSFLSWYQQKPGKAPKLLIYRANRLVDGVPSRFSGSGSGTDFTLTISSLQPEDFATYYCLQYDEFPLTFGQGTKVEIKR
As for B9, in the test with Human FGF19 [3], the “KD (fold weaker), against chimeric 1A6” value was 5.7 fold; the “Ka (fold slower), against chimeric 1A6” value is 6.3 fold; the “Kd (fold faster), against chimeric 1A6” value stood at 0.9 fold.

B10: hu1A6.A100bP/M100kS (HVR-H3) (antibody, name in Kabat numbering, V domains shown)
VH: EVQLVESGGGLVQPGGSLRLSCAASGFSLTTYGVHWVRQAPGKGLEWVGVIWPGGGTDYNAAFISRFTISRDNSKNTLYLQMNSLRAEDTAVYYCVRKEYANLYPSDYWGQGTLVTVSS
VL: DIQMTQSPSSLSASVGDRVTITCKASQDINSFLSWYQQKPGKAPKLLIYRANRLVDGVPSRFSGSGSGTDFTLTISSLQPEDFATYYCLQYDEFPLTFGQGTKVEIKR
notes: also called A100bP/M100cS
Take B10: in the test with Human FGF19 [3], the “KD (fold weaker), against chimeric 1A6” value is 0.9 fold; the “Ka (fold slower), against chimeric 1A6” value stood at 1.7 fold; the “Kd (fold faster), against chimeric 1A6” value was determined as 0.5 fold.

B11: hu1A6.S34T (HVR-L1) (antibody, V domains shown)
VH: EVQLVESGGGLVQPGGSLRLSCAASGFSLTTYGVHWVRQAPGKGLEWVGVIWPGGGTDYNAAFISRFTISRDNSKNTLYLQMNSLRAEDTAVYYCVRKEYANLYAMDYWGQGTLVTVSS
VL: DIQMTQSPSSLSASVGDRVTITCKASQDINSFLTWYQQKPGKAPKLLIYRANRLVDGVPSRFSGSGSGTDFTLTISSLQPEDFATYYCLQYDEFPLTFGQGTKVEIKR
Consider B11, for which, in the test with Human FGF19 [3], the “KD (fold weaker), against chimeric 1A6” value is 14 fold; the “Ka (fold slower), against chimeric 1A6” value stood at 12 fold; the “Kd (fold faster), against chimeric 1A6” value was 1.2 fold.

B12: hu1A6.H35Q (HVR-H1) (antibody, name in Kabat numbering, V domains shown)
VH: EVQLVESGGGLVQPGGSLRLSCAASGFSLTTYGVQWVRQAPGKGLEWVGVIWPGGGTDYNAAFISRFTISRDNSKNTLYLQMNSLRAEDTAVYYCVRKEYANLYAMDYWGQGTLVTVSS
VL: DIQMTQSPSSLSASVGDRVTITCKASQDINSFLSWYQQKPGKAPKLLIYRANRLVDGVPSRFSGSGSGTDFTLTISSLQPEDFATYYCLQYDEFPLTFGQGTKVEIKR
As to B12, in the test with Human FGF19 [3], the “KD (fold weaker), against chimeric 1A6” value was determined as 6.6 fold; the “Ka (fold slower), against chimeric 1A6” value turned out to be 5 fold; the “Kd (fold faster), against chimeric 1A6” value is 1.3 fold.
